{"source": "paper PMC3087496", "about": "(Biochemistry, 2011)", "biological_target": "wild-type His6-Gαi1 (rat, UniProt P10824 1-354)", "sequence (P10824 whole entry)": "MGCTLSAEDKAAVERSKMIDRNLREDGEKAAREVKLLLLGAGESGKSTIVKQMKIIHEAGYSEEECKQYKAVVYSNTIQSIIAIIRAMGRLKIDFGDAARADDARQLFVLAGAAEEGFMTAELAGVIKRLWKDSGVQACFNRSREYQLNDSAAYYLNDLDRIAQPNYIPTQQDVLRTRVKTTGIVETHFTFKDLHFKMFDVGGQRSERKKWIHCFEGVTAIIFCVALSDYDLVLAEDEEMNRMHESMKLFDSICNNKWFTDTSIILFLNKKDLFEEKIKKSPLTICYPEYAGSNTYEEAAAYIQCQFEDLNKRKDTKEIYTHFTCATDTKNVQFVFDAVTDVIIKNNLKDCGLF", "assay": "SEC"}
{"binder": "TxHis6-ΔRGS14 (encoding amino acids 299-544, including the RBD domains and GL domain) (domain or fragment, rat, UniProt O08773 299-544, looked up) GKYCCVYLPDGTASLALARPGLTIRDMLAGICEKRGLSLPDIKVYLVGKEQKALVLDQDCTVLADQEVRLENRITFQLELVGLERVVRISAKPTKRLQEALQPILAKHGLSLDQVVLHRPGEKQLVDLENLVSSVASQTLVLDTLPDAKTREASSIPPCRSQGCLPRTQTKDSHLPPLSSSLSVEDASGSTGKRQTCDIEGLVELLNRVQSSGAHDQRGLLRKEDLVLPEFLQLPSQRPGSQEAPP", "values": [{"measurement": "binding result", "result": "binds"}]}
